IntAct's records for PubMed 15143163

B1: Low-density lipoprotein receptor-related protein 5 (Homo sapiens), O75197 (parent)
chain: MEAAPPGPPWPLLLLLLLLLALCGCPAPAAASPLLLFANRRDVRLVDAGGVKLESTIVVSGLEDAAAVDFQFSKGAVYWTDVSEEAIKQTYLNQTGAAVQNVVISGLVSPDGLACDWVGKKLYWTDSETNRIEVANLNGTSRKVLFWQDLDQPRAIALDPAHGYMYWTDWGETPRIERAGMDGSTRKIIVDSDIYWPNGLTIDLEEQKLYWADAKLSFIHRANLDGSFRQKVVEGSLTHPFALTLSGDTLYWTDWQTRSIHACNKRTGGKRKEILSALYSPMDIQVLSQERQPFFHTRCEEDNGGCSHLCLLSPSEPFYTCACPTGVQLQDNGRTCKAGAEEVLLLARRTDLRRISLDTPDFTDIVLQVDDIRHAIAIDYDPLEGYVYWTDDEVRAIRRAYLDGSGAQTLVNTEINDPDGIAVDWVARNLYWTDTGTDRIEVTRLNGTSRKILVSEDLDEPRAIALHPVMGLMYWTDWGENPKIECANLDGQERRVLVNASLGWPNGLALDLQEGKLYWGDAKTDKIEVINVDGTKRRTLLEDKLPHIFGFTLLGDFIYWTDWQRRSIERVHKVKASRDVIIDQLPDLMGLKAVNVAKVVGTNPCADRNGGCSHLCFFTPHATRCGCPIGLELLSDMKTCIVPEAFLVFTSRAAIHRISLETNNNDVAIPLTGVKEASALDFDVSNNHIYWTDVSLKTISRAFMNGSSVEHVVEFGLDYPEGMAVDWMGKNLYWADTGTNRIEVARLDGQFRQVLVWRDLDNPRSLALDPTKGYIYWTEWGGKPRIVRAFMDGTNCMTLVDKVGRANDLTIDYADQRLYWTDLDTNMIESSNMLGQERVVIADDLPHPFGLTQYSDYIYWTDWNLHSIERADKTSGRNRTLIQGHLDFVMDILVFHSSRQDGLNDCMHNNGQCGQLCLAIPGGHRCGCASHYTLDPSSRNCSPPTTFLLFSQKSAISRMIPDDQHSPDLILPLHGLRNVKAIDYDPLDKFIYWVDGRQNIKRAKDDGTQPFVLTSLSQGQNPDRQPHDLSIDIYSRTLFWTCEATNTINVHRLSGEAMGVVLRGDRDKPRAIVVNAERGYLYFTNMQDRAAKIERAALDGTEREVLFTTGLIRPVALVVDNTLGKLFWVDADLKRIESCDLSGANRLTLEDANIVQPLGLTILGKHLYWIDRQQQMIERVEKTTGDKRTRIQGRVAHLTGIHAVEEVSLEEFSAHPCARDNGGCSHICIAKGDGTPRCSCPVHLVLLQNLLTCGEPPTCSPDQFACATGEIDCIPGAWRCDGFPECDDQSDEEGCPVCSAAQFPCARGQCVDLRLRCDGEADCQDRSDEADCDAICLPNQFRCASGQCVLIKQQCDSFPDCIDGSDELMCEITKPPSDDSPAHSSAIGPVIGIILSLFVMGGVYFVCQRVVCQRYAGANGPFPHEYVSGTPHVPLNFIAPGGSQHGPFTGIACGKSMMSSVSLMGGRGGVPLYDRNHVTGASSSSSSSTKATLYPPILNPPPSPATDPSLYNMDMFYSSNIPATARPYRPYIIRGMAPPTTPCSTDVCDSDYSASRWKASKYYLDLNSDSDPYPPPPTPHSQYLSAEDSCPPSPATERSYFHLFPPPPSPCTDSS
partner: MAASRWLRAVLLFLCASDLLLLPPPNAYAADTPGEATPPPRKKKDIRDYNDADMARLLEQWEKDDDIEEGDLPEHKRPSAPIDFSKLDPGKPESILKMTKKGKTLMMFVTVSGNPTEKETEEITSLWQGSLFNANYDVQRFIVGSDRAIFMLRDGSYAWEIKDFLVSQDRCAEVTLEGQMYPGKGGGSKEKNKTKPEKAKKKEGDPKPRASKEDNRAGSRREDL

Variants of: B1
Conditions: with mesd_mouse Mesd

**Q.** G171V was tested. Which “effect of a mutation on the interaction” value did it give?
**A.** disrupting interaction
